In US20220411504A1:

Target: Human CD3 epsilon (CD3ε) of the T cell receptor complex on cells (human) (UniProt P07766)
Test: flow cytometry on Jurkat cells, 10 nM antibody

Sequence of Human CD3 epsilon (CD3ε) of the T cell receptor complex on cells (human) (P07766 23-207 limits assumed, one chain of several): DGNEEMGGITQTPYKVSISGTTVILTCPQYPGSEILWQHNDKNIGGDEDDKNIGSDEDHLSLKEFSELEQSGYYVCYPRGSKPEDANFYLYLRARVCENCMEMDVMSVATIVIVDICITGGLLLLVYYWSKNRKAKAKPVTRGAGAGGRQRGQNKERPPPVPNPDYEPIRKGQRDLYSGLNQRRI

MFI (arbitrary units): 89200
Substance: UCHT1 (antibody)
